IntAct's records for PubMed 27857056

B1: UDP-glucuronosyltransferase 2B7 (Homo sapiens), P16662 (parent)
chain: MSVKWTSVILLIQLSFCFSSGNCGKVLVWAAEYSHWMNIKTILDELIQRGHEVTVLASSASILFDPNNSSALKIEIYPTSLTKTELENFIMQQIKRWSDLPKDTFWLYFSQVQEIMSIFGDITRKFCKDVVSNKKFMKKVQESRFDVIFADAIFPCSELLAELFNIPFVYSLSFSPGYTFEKHSGGFIFPPSYVPVVMSELTDQMTFMERVKNMIYVLYFDFWFEIFDMKKWDQFYSEVLGRPTTLSETMGKADVWLIRNSWNFQFPYPLLPNVDFVGGLHCKPAKPLPKEMEDFVQSSGENGVVVFSLGSMVSNMTEERANVIASALAQIPQKVLWRFDGNKPDTLGLNTRLYKWIPQNDLLGHPKTRAFITHGGANGIYEAIYHGIPMVGIPLFADQPDNIAHMKARGAAVRVDFNTMSSTDLLNALKRVINDPSYKENVMKLSRIQHDQPVKPLDRAVFWIEFVMRHKGAKHLRVAAHDLTWFQYHSLDVIGFLLVCVATVIFIVTKCCLFCFWKFARKAKKGKND
partner: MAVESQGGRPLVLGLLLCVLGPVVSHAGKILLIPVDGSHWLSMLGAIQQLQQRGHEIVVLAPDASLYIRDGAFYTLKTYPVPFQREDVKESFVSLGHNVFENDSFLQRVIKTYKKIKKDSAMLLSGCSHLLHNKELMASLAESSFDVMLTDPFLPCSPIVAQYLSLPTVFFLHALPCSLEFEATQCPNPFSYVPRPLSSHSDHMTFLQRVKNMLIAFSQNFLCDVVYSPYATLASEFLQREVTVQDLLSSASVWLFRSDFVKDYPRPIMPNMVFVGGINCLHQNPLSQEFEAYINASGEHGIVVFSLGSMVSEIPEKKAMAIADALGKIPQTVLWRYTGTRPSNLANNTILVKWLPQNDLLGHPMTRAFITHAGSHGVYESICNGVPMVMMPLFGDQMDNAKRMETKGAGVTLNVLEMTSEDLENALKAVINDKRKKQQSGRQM
B2: UDP-glucuronosyltransferase 1A9 (Homo sapiens), O60656-1 (parent)
chain: MACTGWTSPLPLCVCLLLTCGFAEAGKLLVVPMDGSHWFTMRSVVEKLILRGHEVVVVMPEVSWQLGRSLNCTVKTYSTSYTLEDLDREFKAFAHAQWKAQVRSIYSLLMGSYNDIFDLFFSNCRSLFKDKKLVEYLKESSFDAVFLDPFDNCGLIVAKYFSLPSVVFARGILCHYLEEGAQCPAPLSYVPRILLGFSDAMTFKERVRNHIMHLEEHLLCHRFFKNALEIASEILQTPVTEYDLYSHTSIWLLRTDFVLDYPKPVMPNMIFIGGINCHQGKPLPMEFEAYINASGEHGIVVFSLGSMVSEIPEKKAMAIADALGKIPQTVLWRYTGTRPSNLANNTILVKWLPQNDLLGHPMTRAFITHAGSHGVYESICNGVPMVMMPLFGDQMDNAKRMETKGAGVTLNVLEMTSEDLENALKAVINDKSYKENIMRLSSLHKDRPVEPLDLAVFWVEFVMRHKGAPHLRPAAHDLTWYQYHSLDVIGFLLAVVLTVAFITFKCCAYGYRKCLGKKGRVKKAHKSKTH
partner: B1 partner

Variants of: B1
Conditions: with UGT1A1, P22309-2

Variant	effect of a mutation on the interaction
MSVKWTSVILLIQLSFCFSSGNCGKVLVWAAEYSHWMNIKTILDELIQRGHEVTVLASSASILFDPNNSSALKIEIYPTSLTKTELENFIMQQIKRWSDLPKDTFWLYFSQVQEIMSIFGDITRKFCKDVVSNKKFMKKVQESRFDVIFADAIFPCSELLAELFNIPFVYSLSFSPGYTFEKHSGGFIFPPSYVPVVMSELTDQMTFMERVKNMIYVLYFDFWFEIFDMKKWDQFYSEVLGRPTTLSETMGKADVWLIRNSWNFQFPYPLLPNVDFVGGLHCKPAKPLPKEMEDFVQSSGENGVVVFSLGSMVSNMTEERANVIASALAQIPQKVLWRFDGNKPDTLGLNTRLYKWIPQNDLLGHPKTRAFITHGGANGIYEAIYHGIPMVGIPLFANQPDNIAHMKARGAAVRVDFNTMSSTDLLNALKRVINDPSYKENVMKLSRIQHDQPVKPLDRAVFWIEFVMRHKGAKHLRVAAHDLTWFQYHSLDVIGFLLVCVATVIFIVTKCCLFCFWKFARKAKKGKND [D398N]	disrupting interaction strength
MSVKWTSVILLIQLSFCFSSGNCGKVLVWAAEYSHWMNIKTILDELIQRGHEVTVLASSASILFDPNNSSSLKIEIYPTSLTKTELENFIMQQIKRWSDLPKDTFWLYFSQVQEIMSIFGDITRKFCKDVVSNKKFMKKVQESRFDVIFADAIFPCSELLAELFNIPFVYSLSFSPGYTFEKHSGGFIFPPSYVPVVMSELTDQMTFMERVKNMIYVLYFDFWFEIFDMKKWDQFYSEVLGRPTTLSETMGKADVWLIRNSWNFQFPYPLLPNVDFVGGLHCKPAKPLPKEMEDFVQSSGENGVVVFSLGSMVSNMTEERANVIASALAQIPQKVLWRFDGNKPDTLGLNTRLYKWIPQNDLLGHPKTRAFITHGGANGIYEAIYHGIPMVGIPLFADQPDNIAHMKARGAAVRVDFNTMSSTDLLNALKRVINDPSYKENVMKLSRIQHDQPVKPLDRAVFWIEFVMRHKGAKHLRVAAHDLTWFQYHSLDVIGFLLVCVATVIFIVTKCCLFCFWKFARKAKKGKND [A71S]	with no effect

Variants of: B2
Conditions: with UGT1A1, P22309-2

Variant	effect of a mutation on the interaction
MACTGWTSPLPLCVCLLLTCGFAEAGKLLVVPMDGSHWFTMRSVVEKLILRGHEVVVVMPEVSWQLGRSLNCTVKTYSTSYTLEDLDREFKAFAHAQWKAQVRSIYSLLMGSYNDIFDLFFSNCRSLFKDKKLVEYLKESSFDAVFLDPFDNCGLIVAKYFSLPSVVFARGILCHYLEEGAQCPAPLSYVPRILLGFSDAMTFKERVRNHIMHLEEHLLCHRFFKNALEIASEILQTPVTEYDLYSHTSIWLLRTNFVLDYPKPVMPNMIFIGGINCHQGKPLPMEFEAYINASGEHGIVVFSLGSMVSEIPEKKAMAIADALGKIPQTVLWRYTGTRPSNLANNTILVKWLPQNDLLGHPMTRAFITHAGSHGVYESICNGVPMVMMPLFGDQMDNAKRMETKGAGVTLNVLEMTSEDLENALKAVINDKSYKENIMRLSSLHKDRPVEPLDLAVFWVEFVMRHKGAPHLRPAAHDLTWYQYHSLDVIGFLLAVVLTVAFITFKCCAYGYRKCLGKKGRVKKAHKSKTH [D256N]	with no effect
MACTGWTSPLPLCVCLLLTCGFAEAGKLLVVPTDGSHWFTMRSVVEKLILRGHEVVVVMPEVSWQLGRSLNCTVKTYSTSYTLEDLDREFKAFAHAQWKAQVRSIYSLLMGSYNDIFDLFFSNCRSLFKDKKLVEYLKESSFDAVFLDPFDNCGLIVAKYFSLPSVVFARGILCHYLEEGAQCPAPLSYVPRILLGFSDAMTFKERVRNHIMHLEEHLLCHRFFKNALEIASEILQTPVTEYDLYSHTSIWLLRTDFVLDYPKPVMPNMIFIGGINCHQGKPLPMEFEAYINASGEHGIVVFSLGSMVSEIPEKKAMAIADALGKIPQTVLWRYTGTRPSNLANNTILVKWLPQNDLLGHPMTRAFITHAGSHGVYESICNGVPMVMMPLFGDQMDNAKRMETKGAGVTLNVLEMTSEDLENALKAVINDKSYKENIMRLSSLHKDRPVEPLDLAVFWVEFVMRHKGAPHLRPAAHDLTWYQYHSLDVIGFLLAVVLTVAFITFKCCAYGYRKCLGKKGRVKKAHKSKTH [M33T]	with no effect
